# In US6441131:
# T1: peptide of Example 2(36)
# T1 chain: PNSEXX
# T2: peptide of Example 2(33)
# T2 chain: PQEEXX
# T3: peptide of Example 2(53)
# T3 chain: QLSEXX
# T4: peptide of Example 2(51)
# T4 chain: GLSEXX
# T5: peptide of Example 2(80)
# T5 chain: LSEXAX
# T6: peptide of Example 2(83)
# T6 chain: GLSEXAX
# T7: peptide of Example 2(57)
# T7 chain: TLSEXX
# T8: peptide of Example 2(39)
# T8 chain: PMSEXX
# T9: ProLeuSerGluAla(2-Naph)Ala-pNA
# T9 chain: PLSEXX
# T10: peptide of Example 2(24)
# T10 chain: PQQGXX
# T11: peptide of Example 2(45)
# T11 chain: PTSEXX
# T12: peptide of Example 2(63)
# T12 chain: PNNLSEXX
# T13: peptide of Example 2(7)
# T13 chain: PQQAXX
# T14: peptide of Example 2(61)
# T14 chain: KNLSEXX
# T15: peptide of Example 2(25)
# T15 chain: PQQMXX
# T16: peptide of Example 2(11)
# T16 chain: PQQAXX
# T17: Nα-Me-GlySerGlyAla(2-Naph)AlaAla-DCHA.TFMSA
# T17 chain: GSGXAX
# T18: peptide of Example 2(16)
# T18 chain: NPQQAXX
# T19: peptide of Example 2(56)
# T19 chain: SLSEXX
# T20: peptide of Example 2(34)
# T20 chain: PQDEXX
# T21: peptide of Example 2(18)
# T21 chain: APQQAXX
# T22: peptide of Example 2(22) (not fully specified)
# T22 chain: PQQNXX
# T23: peptide of Example 2(14)
# T23 chain: KPQQAXX
# T24: peptide of Example 2(78)
# T24 chain: LSEXAX
# T25: peptide of Example 2(23)
# T25 chain: PQQQXX
# T26: peptide of Example 2(69)
# T26 chain: XLSEXX
# T27: Nα-Me-GlyLeuSerGluAla(2-Naph)Ala-pNA.TFMSA
# T27 chain: GLSEXX
# T28: peptide of Example 2(3)
# T28 chain: PQQAXX
# T29: peptide of Example 2(54)
# T29 chain: KLSEXX
# Experiments:
# peptide of Example 2(36) = molecular target: T1, peptide of Example 2(36)
# peptide of Example 2(33) = molecular target: T2, peptide of Example 2(33)
# peptide of Example 2(53) = molecular target: T3, peptide of Example 2(53)
# peptide of Example 2(51) = molecular target: T4, peptide of Example 2(51)
# peptide of Example 2(80) = molecular target: T5, peptide of Example 2(80)
# peptide of Example 2(83) = molecular target: T6, peptide of Example 2(83)
# peptide of Example 2(57) = molecular target: T7, peptide of Example 2(57)
# peptide of Example 2(39) = molecular target: T8, peptide of Example 2(39)
# [1] = molecular target: T9, ProLeuSerGluAla(2-Naph)Ala-pNA
# peptide of Example 2(24) = molecular target: T10, peptide of Example 2(24)
# peptide of Example 2(45) = molecular target: T11, peptide of Example 2(45)
# peptide of Example 2(63) = molecular target: T12, peptide of Example 2(63)
# peptide of Example 2(7) = molecular target: T13, peptide of Example 2(7)
# peptide of Example 2(61) = molecular target: T14, peptide of Example 2(61)
# peptide of Example 2(25) = molecular target: T15, peptide of Example 2(25)
# peptide of Example 2(11) = molecular target: T16, peptide of Example 2(11)
# [2] = molecular target: T17, Nα-Me-GlySerGlyAla(2-Naph)AlaAla-DCHA.TF …
# peptide of Example 2(16) = molecular target: T18, peptide of Example 2(16)
# peptide of Example 2(56) = molecular target: T19, peptide of Example 2(56)
# peptide of Example 2(34) = molecular target: T20, peptide of Example 2(34)
# peptide of Example 2(18) = molecular target: T21, peptide of Example 2(18)
# peptide of Example 2(22) = molecular target: T22, peptide of Example 2(22)
# peptide of Example 2(14) = molecular target: T23, peptide of Example 2(14)
# peptide of Example 2(78) = molecular target: T24, peptide of Example 2(78)
# peptide of Example 2(23) = molecular target: T25, peptide of Example 2(23)
# peptide of Example 2(69) = molecular target: T26, peptide of Example 2(69)
# [3] = molecular target: T27, Nα-Me-GlyLeuSerGluAla(2-Naph)Ala-pNA.TFM …
# peptide of Example 2(3) = molecular target: T28, peptide of Example 2(3)
# peptide of Example 2(54) = molecular target: T29, peptide of Example 2(54)
protein,measurement,setting,value
human pepsin II (protein) SVTYEPMAYMDAAYFGEISIGTPPQNFLVLFDTGSSNLWVPSVYCQSQACTSHSRFNPSESSTYSTNGQTFSLQYGSGSLTGFFGYDTLTVQSIQVPNQEFGLSENEPGTNFVYAQFDGIMGLAYPALSVDEATTAMQGMVQEGALTSPVFSVYLSNQQGSSGGAVVFGGVDSSLYTGQIYWAPVTQELYWQIGIEEFLIGGQASGWCSEGCQAIVDTGTSLLTVPQQYMSALLQATGAQEDEYGQFLVNCNSIQNLPSLTFIINGVEFPLPPSSYILSNNGYCTVGVEPTYLSSQNGQPLWILGDVFLRSYYSVYDLGNNRVGFATAA,pepsin II digesting rate (µM/min · 1 µg Enz),peptide of Example 2(36),21.2
same,ration of digesting rate (pepsin II/ pepsin I),peptide of Example 2(36),194
same,pepsin II digesting rate (µM/min · 1 µg Enz),peptide of Example 2(33),25.4
same,ration of digesting rate (pepsin II/ pepsin I),peptide of Example 2(33),402
same,pepsin II digesting rate (µM/min · 1 µg Enz),peptide of Example 2(53),62
same,ration of digesting rate (pepsin II/ pepsin I),peptide of Example 2(53),621
same,pepsin II digesting rate (µM/min · 1 µg Enz),peptide of Example 2(51),54.4
same,ration of digesting rate (pepsin II/ pepsin I),peptide of Example 2(51),334
same,pepsin II digesting rate (µM/min · 1 µg Enz),peptide of Example 2(80),15.8
same,ration of digesting rate (pepsin II/ pepsin I),peptide of Example 2(80),105
same,pepsin II digesting rate (µM/min · 1 µg Enz),peptide of Example 2(83),70.7
same,ration of digesting rate (pepsin II/ pepsin I),peptide of Example 2(83),29.9
same,pepsin II digesting rate (µM/min · 1 µg Enz),peptide of Example 2(57),18.8
same,ration of digesting rate (pepsin II/ pepsin I),peptide of Example 2(57),661
same,pepsin II digesting rate (µM/min · 1 µg Enz),peptide of Example 2(39),45.8
same,ration of digesting rate (pepsin II/ pepsin I),peptide of Example 2(39),201
same,pepsin II digesting rate (µM/min · 1 µg Enz),[1],55.4
same,ration of digesting rate (pepsin II/ pepsin I),[1],198
same,pepsin II digesting rate (µM/min · 1 µg Enz),peptide of Example 2(24),12.1
same,ration of digesting rate (pepsin II/ pepsin I),peptide of Example 2(24),2080
same,pepsin II digesting rate (µM/min · 1 µg Enz),peptide of Example 2(45),40.5
same,ration of digesting rate (pepsin II/ pepsin I),peptide of Example 2(45),161
same,pepsin II digesting rate (µM/min · 1 µg Enz),peptide of Example 2(63),29.8
same,ration of digesting rate (pepsin II/ pepsin I),peptide of Example 2(63),169
same,pepsin II digesting rate (µM/min · 1 µg Enz),peptide of Example 2(7),3.5
same,ration of digesting rate (pepsin II/ pepsin I),peptide of Example 2(7),104
same,pepsin II digesting rate (µM/min · 1 µg Enz),peptide of Example 2(61),36.8
same,ration of digesting rate (pepsin II/ pepsin I),peptide of Example 2(61),219
same,pepsin II digesting rate (µM/min · 1 µg Enz),peptide of Example 2(25),5.56
same,ration of digesting rate (pepsin II/ pepsin I),peptide of Example 2(25),890
same,pepsin II digesting rate (µM/min · 1 µg Enz),peptide of Example 2(11),4.1
same,ration of digesting rate (pepsin II/ pepsin I),peptide of Example 2(11),175
same,pepsin II digesting rate (µM/min · 1 µg Enz),[2],33.1
same,ration of digesting rate (pepsin II/ pepsin I),[2],120
same,pepsin II digesting rate (µM/min · 1 µg Enz),peptide of Example 2(16),8.95
same,ration of digesting rate (pepsin II/ pepsin I),peptide of Example 2(16),1090
same,pepsin II digesting rate (µM/min · 1 µg Enz),peptide of Example 2(56),10.9
same,ration of digesting rate (pepsin II/ pepsin I),peptide of Example 2(56),563
same,pepsin II digesting rate (µM/min · 1 µg Enz),peptide of Example 2(34),15.4
same,ration of digesting rate (pepsin II/ pepsin I),peptide of Example 2(34),712
same,pepsin II digesting rate (µM/min · 1 µg Enz),peptide of Example 2(18),9.2
same,ration of digesting rate (pepsin II/ pepsin I),peptide of Example 2(18),757
same,pepsin II digesting rate (µM/min · 1 µg Enz),peptide of Example 2(22),12.9
same,ration of digesting rate (pepsin II/ pepsin I),peptide of Example 2(22),223
same,pepsin II digesting rate (µM/min · 1 µg Enz),peptide of Example 2(14),3.85
same,ration of digesting rate (pepsin II/ pepsin I),peptide of Example 2(14),410
same,pepsin II digesting rate (µM/min · 1 µg Enz),peptide of Example 2(78),54.4
same,ration of digesting rate (pepsin II/ pepsin I),peptide of Example 2(78),20.7
same,pepsin II digesting rate (µM/min · 1 µg Enz),peptide of Example 2(23),5.9
same,ration of digesting rate (pepsin II/ pepsin I),peptide of Example 2(23),309
same,pepsin II digesting rate (µM/min · 1 µg Enz),peptide of Example 2(69),73.1
same,ration of digesting rate (pepsin II/ pepsin I),peptide of Example 2(69),74.2
same,pepsin II digesting rate (µM/min · 1 µg Enz),[3],49.6
same,ration of digesting rate (pepsin II/ pepsin I),[3],158
same,pepsin II digesting rate (µM/min · 1 µg Enz),peptide of Example 2(3),4.23
same,ration of digesting rate (pepsin II/ pepsin I),peptide of Example 2(3),2070
same,pepsin II digesting rate (µM/min · 1 µg Enz),peptide of Example 2(54),48.4
same,ration of digesting rate (pepsin II/ pepsin I),peptide of Example 2(54),177
human pepsin I (protein) VDEQPLENYLDMEYFGTIGIGTPAQDFTVVFDTGSSNLWVPSVYCSSLACTNHNRFNPEDSSTYQSTSETVSITYGTGSMTGILGYDTVQVGGISDTNQIFGLSETEPGSFLYYAPFDGILGLAYPSISSSGATPVFDNIWNQGLVSQDLFSVYLSADDQSGSVVIFGGIDSSYYTGSLNWVPVTVEGYWQITVDSITMNGEAIACAEGCQAIVDTGTSLLTGPTSPIANIQSDIGASENSDGDMVVSCSAISSLPDIVFTINGVQYPVPPSAYILQSEGSCISGFQGMNLPTESGELWILGDVFIRQYFTVFDRANNQVGLAPVA,pepsin I digesting rate (µM/min · 1 µg Enz),peptide of Example 2(36),0.11
same,pepsin I digesting rate (µM/min · 1 µg Enz),peptide of Example 2(33),0.0632
same,pepsin I digesting rate (µM/min · 1 µg Enz),peptide of Example 2(53),0.0998
same,pepsin I digesting rate (µM/min · 1 µg Enz),peptide of Example 2(51),0.163
same,pepsin I digesting rate (µM/min · 1 µg Enz),peptide of Example 2(80),0.15
same,pepsin I digesting rate (µM/min · 1 µg Enz),peptide of Example 2(83),2.37
same,pepsin I digesting rate (µM/min · 1 µg Enz),peptide of Example 2(57),0.0284
same,pepsin I digesting rate (µM/min · 1 µg Enz),peptide of Example 2(39),0.228
same,pepsin I digesting rate (µM/min · 1 µg Enz),[1],0.28
same,pepsin I digesting rate (µM/min · 1 µg Enz),peptide of Example 2(24),0.0058
same,pepsin I digesting rate (µM/min · 1 µg Enz),peptide of Example 2(45),0.251
same,pepsin I digesting rate (µM/min · 1 µg Enz),peptide of Example 2(63),0.176
same,pepsin I digesting rate (µM/min · 1 µg Enz),peptide of Example 2(7),0.0335
same,pepsin I digesting rate (µM/min · 1 µg Enz),peptide of Example 2(61),0.168
same,pepsin I digesting rate (µM/min · 1 µg Enz),peptide of Example 2(25),0.0063
same,pepsin I digesting rate (µM/min · 1 µg Enz),peptide of Example 2(11),0.0235
same,pepsin I digesting rate (µM/min · 1 µg Enz),[2],0.277
same,pepsin I digesting rate (µM/min · 1 µg Enz),peptide of Example 2(16),0.0082
same,pepsin I digesting rate (µM/min · 1 µg Enz),peptide of Example 2(56),0.0194
same,pepsin I digesting rate (µM/min · 1 µg Enz),peptide of Example 2(34),0.0216
same,pepsin I digesting rate (µM/min · 1 µg Enz),peptide of Example 2(18),0.0122
same,pepsin I digesting rate (µM/min · 1 µg Enz),peptide of Example 2(22),0.0578
same,pepsin I digesting rate (µM/min · 1 µg Enz),peptide of Example 2(14),0.0094
same,pepsin I digesting rate (µM/min · 1 µg Enz),peptide of Example 2(78),2.62
same,pepsin I digesting rate (µM/min · 1 µg Enz),peptide of Example 2(23),0.0191
same,pepsin I digesting rate (µM/min · 1 µg Enz),peptide of Example 2(69),0.985
same,pepsin I digesting rate (µM/min · 1 µg Enz),[3],0.313
same,pepsin I digesting rate (µM/min · 1 µg Enz),peptide of Example 2(3),0.002
same,pepsin I digesting rate (µM/min · 1 µg Enz),peptide of Example 2(54),0.274
